Data as given in patent US20120316071A1 (published 2012).

How the values were obtained:
[1] = biological target: T1, Recombinant Human DLL4 (delta-like protein 4) (human, UniProt Q9NR61 27-529); assay: ELISA on coated DLL4, 100 nM Fab
T1 construct: Bought recombinant human DLL4 (R&D Systems Cat#1506-D4/CF), coated on the plate; also called rHuman DLL4; Delta-like 4

[2] = biological target: T1, Recombinant Human DLL4 (delta-like …); assay: 96-well plate ECL (MSD) binding assay on coated DLL4, 10 nM Fab

B1: Fab VH1-46_IGHD6-6*01_IGHJ1*01 S102A/S103P/S104F/H111F/I51S/N52L/S54T/G56H (APFF SLTH) & L6_IGKJ1*01 (Fab, V domains shown)
VH: QVQLVQSGAEVKKPGASVKVSCKASGYTFTSYYMHWVRQAPGQGLEWMGISLPTGHSTSYAQKFQGRVTMTRDTSTSTVYMELSSLRSEDTAVYYCAREEYAPFSAEYFQFWGQGTLVTVSS
VL: not shown
notes: Fab made in E. coli; CH1 with tags and kappa CL are not included
ELISA signal [1]: 0.786
ECL signal [2]: 135000
